# Key:
# [1] = test system: recombinant mouse Kip1 with a C-terminal hexahistidine sequence (expressed in BL21(DE3) bacteria from pET21a)
# [2] = test system: Kip1 (28-79), 52-amino acid peptide with a C-terminal hexahistidine tag
# [3] = molecular target: His-cyclin E-Cdk2 complex (baculoviral human cyclin E with N-terminal hexahistidine, in complex with baculoviral Cdk2) (human) (UniProt P24864); assay: cell-based or functional assay
# [4] = molecular target: human cyclin A-Cdk2 complex (baculovirally expressed) (human) (UniProt P20248); assay: cell-based or functional assay
# recombinant mouse Kip1 with a C-terminal hexahistidine sequence (expressed in BL21(DE3) bacteria from pET21a), sequence (chain, as listed by the source): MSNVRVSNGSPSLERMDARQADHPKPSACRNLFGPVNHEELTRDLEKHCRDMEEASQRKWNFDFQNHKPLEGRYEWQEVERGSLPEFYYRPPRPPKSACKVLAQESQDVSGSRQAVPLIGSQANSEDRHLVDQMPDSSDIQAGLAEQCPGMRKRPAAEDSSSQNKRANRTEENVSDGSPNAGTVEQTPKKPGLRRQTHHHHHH
# Kip1 (28-79), 52-amino acid peptide with a C-terminal hexahistidine tag, sequence (chain, as listed by the source): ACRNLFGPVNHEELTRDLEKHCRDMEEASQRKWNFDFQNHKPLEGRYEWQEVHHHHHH
substance,measurement,setting,value
"His-cyclin E-Cdk2 complex (baculoviral human cyclin E with N-terminal hexahistidine, in complex with baculoviral Cdk2)",Rb kinase activity (phosphorylation of a GST-Rb fusion product),[1],"Addition of Kip1 to cyclin E-Cdk2, cyclin A-Cdk2 or cyclin D2-Cdk4 complexes inhibited their ability to phosphorylate a GST-Rb fusion product"
same,Rb phosphorylation,[2],inhibited cyclin E-Cdk2 or cyclin D2:Cdk4 less effectively
human cyclin A-Cdk2 complex (baculovirally expressed),Rb kinase activity (phosphorylation of a GST-Rb fusion product),[1],"Addition of Kip1 to cyclin E-Cdk2, cyclin A-Cdk2 or cyclin D2-Cdk4 complexes inhibited their ability to phosphorylate a GST-Rb fusion product"
same,Rb phosphorylation,[2],This peptide inhibited Rb phosphorylation by cyclin A-Cdk2 with a potency that was close to that of full length Kip1
recombinant mouse Kip1 with a C-terminal hexahistidine sequence (expressed in BL21(DE3) bacteria from pET21a) (from UniProt P46414 1-197),"histone H1 kinase activity, half-maximal inhibition",[3],0.5 nM
same,"histone H1 kinase activity, concentration for complete inhibition",[4],8 fold
cyclin E-Cdk2 complexes assembled in A549 cell extracts (added histidine-tagged baculoviral cyclin E with the endogenous Cdk2),cyclin E-associated histone H1 kinase activity and Thr160-phosphorylated form of Cdk2 on western blot,[1],Addition of histidine-tagged Kip1 to the cell extracts markedly decreased the level of cyclin E-associated kinase activity
